Source: article PMC8484739 (The Journal of Biological Chemistry, 2021)
Where two headings read alike, the source gives them in different places.

Experiments:
[1] = target: wild type CD70-His-Avi (human) (UniProt P32970); test: SPR
[2] = target: wild type CD70-His-Avi (human) (UniProt P32970); test: SPR; remark: listed apart in the source
[3] = target: wild type CD70-His-Avi (human) (UniProt P32970); test: SPR; remark: listed apart in the source
[4] = target: human CD70 S137K, His-Avi tagged, purified (human) (UniProt P32970); test: SPR
[5] = target: CD70-S137E (human) (UniProt P32970); test: SPR
[6] = target: CD70-H148E (human) (UniProt P32970); test: SPR
[7] = target: CD70-S146A (human) (UniProt P32970); test: SPR
[8] = target: CD70-Q61A (human) (UniProt P32970); test: SPR
[9] = target: CD70-A80R (human) (UniProt P32970); test: SPR
[10] = target: CD70-A80F (human) (UniProt P32970); test: SPR
[11] = target: CD70-S137A (human) (UniProt P32970); test: SPR
[12] = target: CD70-H148A (human) (UniProt P32970); test: SPR
[13] = target: CD70-S137K (human) (UniProt P32970); test: SPR
[14] = target: CD70-H148D (human) (UniProt P32970); test: SPR
[15] = target: the molecule itself; test: SEC
[16] = target: T1, wild type CD70-His-Avi (human, UniProt P32970 45-193); test: SPR
T1 sequence (looked up): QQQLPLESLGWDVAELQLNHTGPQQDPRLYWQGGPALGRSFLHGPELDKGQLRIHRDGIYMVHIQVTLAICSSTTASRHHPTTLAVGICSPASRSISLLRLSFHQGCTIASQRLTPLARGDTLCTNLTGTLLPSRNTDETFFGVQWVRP

## human CD27 wild-type (glycosylated) (from UniProt P26842 23-127) (receptor)
[1]
  Kd: 135 nM
[2]
  Kd: 134 nM
  half-life (calculated from kd): 2.67 min
[3]
  Kd: 121 nM

## deglycosylated human CD27 (from UniProt P26842 23-127) (receptor)
[2]
  Kd: 118 nM
  half-life (calculated from kd): 1.9 min

B1: human CD27 wild type, glycosylated (residues A23-S127) (receptor)
chain: APKSCPERHYWAQGKLCCQMCEPGTFLVKDCDQHRKAAQCDPCIPGVSFSPDHHTRPHCESCRHCNSGLLVRNCTITANAECACRNGWQCRDKECTECDPLPNPS
modifications: N-linked glycan (glycosylated form)
[4]
  Kd: 113 nM

B2: human CD27 wild-type (glycosylated) (receptor)
chain: APKSCPERHYWAQGKLCCQMCEPGTFLVKDCDQHRKAAQCDPCIPGVSFSPDHHTRPHCESCRHCNSGLLVRNCTITANAECACRNGWQCRDKECTECDPLPNPS
modifications: N-linked glycans kept (glycosylated; no Endo H digestion)
[5]
  Kd: 526 nM
[6]
  Kd: 380 nM
[7]
  Kd: 116 nM
[8]
  Kd: 205 nM
[9]
  Kd: 163 nM
[10]
  Kd: 643 nM
[11]
  Kd: 156 nM
[12]
  Kd: 236 nM
[13]
  Kd: 135 nM
[14]
  Kd: 477 nM

B3: glycosylated human CD70 (crystallisation construct) (ligand, UniProt P32970 45-193, looked up)
chain: QQQLPLESLGWDVAELQLNHTGPQQDPRLYWQGGPALGRSFLHGPELDKGQLRIHRDGIYMVHIQVTLAICSSTTASRHHPTTLAVGICSPASRSISLLRLSFHQGCTIASQRLTPLARGDTLCTNLTGTLLPSRNTDETFFGVQWVRP
modifications: N-linked glycans on N63 and N170; core fucosylation at N63
[15]
  stoichiometry N: 3

B4: CD27-K115A (receptor, human, UniProt P26842 23-127, looked up)
chain: APKSCPERHYWAQGKLCCQMCEPGTFLVKDCDQHRKAAQCDPCIPGVSFSPDHHTRPHCESCRHCNSGLLVRNCTITANAECACRNGWQCRDAECTECDPLPNPS
modifications: glycosylated
[16]
  Kd: 102 nM
  koff: 0.00351 s⁻¹
  kon: 34500 M⁻¹ s⁻¹

B5: CD27-N95A (receptor, human, UniProt P26842 23-127, looked up)
chain: APKSCPERHYWAQGKLCCQMCEPGTFLVKDCDQHRKAAQCDPCIPGVSFSPDHHTRPHCESCRHCNSGLLVRACTITANAECACRNGWQCRDKECTECDPLPNPS
[16]
  Kd: 100 nM
  koff: 0.00726 s⁻¹
  kon: 72500 M⁻¹ s⁻¹

B6: CD27-R30A (receptor, human, UniProt P26842 23-127, looked up)
chain: APKSCPEAHYWAQGKLCCQMCEPGTFLVKDCDQHRKAAQCDPCIPGVSFSPDHHTRPHCESCRHCNSGLLVRNCTITANAECACRNGWQCRDKECTECDPLPNPS
modifications: glycosylated
[16]
  Kd: 351 nM
  koff: 0.0047 s⁻¹
  kon: 13400 M⁻¹ s⁻¹

B7: CD27-S83A (receptor, human, UniProt P26842 23-127, looked up)
chain: APKSCPERHYWAQGKLCCQMCEPGTFLVKDCDQHRKAAQCDPCIPGVSFSPDHHTRPHCEACRHCNSGLLVRNCTITANAECACRNGWQCRDKECTECDPLPNPS
modifications: glycosylated
[16]
  Kd: 254 nM
  koff: 0.00854 s⁻¹
  kon: 33600 M⁻¹ s⁻¹
